Here are results for 49 molecules from US20170165337A1 (IMMATICS BIOTECHNOLOGIES, published 2017).

Some results are limits rather than exact numbers.

This assay deals with T1, HLA-A*02:01 (human).
T1 construct: MHC class I monomer of the UV-ligand exchange assay; also called peptide-receptive MHC molecules; MHC class I
As to the kind of experiment: UV peptide-exchange ELISA. The method, boiled down: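 Peptide-MHC complexes formed by UV-mediated exchange of a UV-cleavable peptide for the test peptide; exchange yield quantified by β2m ELISA. Diluted 100-fold, captured on streptavidin-coated plates 1 h at 37 °C, detected with HRP anti-β2m and TMB at 450 nm against refolded HLA-A*02:01 monomer standards (15-500 ng/ml).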

Turning to FIAPTGHSL, the peptide exchange yield is 20 to 50%. Molecule IILPVEVEV came in with a peptide exchange yield of 50 to 75%. LLFPQIEGIKI returned a peptide exchange yield of 50 to 75%.

Turning to ILQPMDIHV, the peptide exchange yield lay within 50 to 75%. The same measure for TLTDEQFLV: 20 to 50%; for SLWNAGTSV: 50 to 75%; for SLDDVEGMSV: 50 to 75%. Regarding LAIVPVNTL, the peptide exchange yield was 10 to 20%. TLLDWQDSL had a peptide exchange yield of 50 to 75%.

The molecule YMAPEVVEA yielded a peptide exchange yield of 50 to 75%. The same measure for AASPIITLV: 50 to 75%; for GVATAGCVNEV: not below 75%; for FLLEDLSQKL: 50 to 75%. VMILKLPFL returned a peptide exchange yield of 20 to 50%. The same measure for ALDIMIPMV: 50 to 75%; for AVLLVLPLV: 50 to 75%; for FLWEEKFNSL: not below 75%. With AVLQAVTAV, the peptide exchange yield fell in the range of 50 to 75%.

Molecule TVLPVPPLSV had a peptide exchange yield of 50 to 75%.

As for VIRNIVEAA, the peptide exchange yield is 20 to 50%.

The molecule ILEENIPVL came in with a peptide exchange yield of 50 to 75%. Molecule ILLNEDDLVTI registered a peptide exchange yield of 50 to 75%. With ILEEQPMDMLL the figure was 50 to 75%.

Regarding LLSAAEPVPA, the peptide exchange yield is 20 to 50%.

Consider GLAESTGLLAV, for which the peptide exchange yield was 50 to 75%. AVLHLLLSV had a peptide exchange yield of 20 to 50%. Regarding LLRDGIELV, the peptide exchange yield was in the range of 50 to 75%. With ILLNPAYDVYL, the peptide exchange yield lay within 50 to 75%.

Molecule ALLDQLHTLL registered a peptide exchange yield not below 75%. For ILSQPTPSL, the peptide exchange yield lay within 50 to 75%. Consider TLLDQLDTQL, for which the peptide exchange yield was 20 to 50%.

On to TLLQVFHLL, for which the peptide exchange yield was in the range of 50 to 75%. Consider AVLGLVWLL, for which the peptide exchange yield was in the range of 50 to 75%. YTLDSLYWSV returned a peptide exchange yield of 50 to 75%.

As for VLLFIEHSV, the peptide exchange yield was 50 to 75%. Take TLLADDLEIKL: the peptide exchange yield fell in the range of 50 to 75%. With FLVEPQEDTRL the figure was 50 to 75%; with VLLEYHIAYL, 50 to 75%. SQWEDIHVV gave a peptide exchange yield of 50 to 75%. As to ILQDLTFVHL, the peptide exchange yield is 50 to 75%. On to VLGEYSYLL, for which the peptide exchange yield lay within 50 to 75%. Molecule NLLDDRGMTAL returned a peptide exchange yield of 50 to 75%. The molecule VLDELPPLI registered a peptide exchange yield of 50 to 75%. YLDDLLPKL registered a peptide exchange yield of 50 to 75%. For AAALIIHHV, the peptide exchange yield was 50 to 75%. With TILDYINVV the figure was 50 to 75%; with ALLQKLQQL, 50 to 75%; with SLVEAQGWLV, 50 to 75%. With VLNDGAPNV the figure was 50 to 75%.
